Assay results as given in article PMC3082181 (The Journal of Cell Biology, 2011).
Where a chain is given by its changes, count along the chain named.

T1: Munc18c (mouse (endogenous in 3T3-L1 adipocytes …, UniProt Q60770 1-592))
T1 sequence: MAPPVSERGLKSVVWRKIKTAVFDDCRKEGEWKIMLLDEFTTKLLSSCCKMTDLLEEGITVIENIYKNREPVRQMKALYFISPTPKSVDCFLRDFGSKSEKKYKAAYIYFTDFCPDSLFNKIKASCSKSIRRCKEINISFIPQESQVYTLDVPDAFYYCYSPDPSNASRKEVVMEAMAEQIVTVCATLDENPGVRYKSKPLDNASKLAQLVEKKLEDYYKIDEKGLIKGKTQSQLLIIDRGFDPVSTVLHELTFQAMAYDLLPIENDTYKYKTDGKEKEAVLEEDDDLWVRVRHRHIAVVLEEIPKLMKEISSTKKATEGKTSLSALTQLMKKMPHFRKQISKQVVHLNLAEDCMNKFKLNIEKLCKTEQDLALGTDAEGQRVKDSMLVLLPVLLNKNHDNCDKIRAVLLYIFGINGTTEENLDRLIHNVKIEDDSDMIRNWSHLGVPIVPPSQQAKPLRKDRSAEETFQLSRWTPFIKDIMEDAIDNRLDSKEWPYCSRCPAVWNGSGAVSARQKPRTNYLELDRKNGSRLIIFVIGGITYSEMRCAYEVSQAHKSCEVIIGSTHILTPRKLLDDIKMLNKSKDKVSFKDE

T2: Flag-Munc18c-Y521F (mouse, UniProt Q60770 1-592, Y521F)
T2 sequence: T1 sequence with Y521F

T3: Flag-Munc18c-Y219F (mouse, UniProt Q60770 1-592, Y219F)
T3 sequence: T1 sequence with Y219F

B1: insulin receptor (receptor)
chain 1: HLYPGEVCPGMDIRNNLTRLHELENCSVIEGHLQILLMFKTRPEDFRDLSFPKLIMITDYLLLFRVYGLESLKDLFPNLTVIRGSRLFFNYALVIFEMVHLKELGLYNLMNITRGSVRIEKNNELCYLATIDWSRILDSVEDNYIVLNKDDNEECGDVCPGTAKGKTNCPATVINGQFVERCWTHSHCQKVCPTICKSHGCTAEGLCCHKECLGNCSEPDDPTKCVACRNFYLDGQCVETCPPPYYHFQDWRCVNFSFCQDLHFKCRNSRKPGCHQYVIHNNKCIPECPSGYTMNSSNLMCTPCLGPCPKVCQILEGEKTIDSVTSAQELRGCTVINGSLIINIRGGNNLAAELEANLGLIEEISGFLKIRRSYALVSLSFFRKLHLIRGETLEIGNYSFYALDNQNLRQLWDWSKHNLTITQGKLFFHYNPKLCLSEIHKMEEVSGTKGRQERNDIALKTNGDQASCENELLKFSFIRTSFDKILLRWEPYWPPDFRDLLGFMLFYKEAPYQNVTEFDGQDACGSNSWTVVDIDPPQRSNDPKSQTPSHPGWLMRGLKPWTQYAIFVKTLVTFSDERRTYGAKSDIIYVQTDATNPSVPLDPISVSNSSSQIILKWKPPSDPNGNITHYLVYWERQAEDSELFELDYCLKGLKLPSRTWSPPFESDDSQKHNQSEYDDSASECCSCPKTDSQILKELEESSFRKTFEDYLHNVVFVPRPS
chain 2: SLEEVGNVTATTLTLPDFPNVSSTIVPTSQEEHRPFEKVVNKESLVISGLRHFTGYRIELQACNQDSPDERCSVAAYVSARTMPEAKADDIVGPVTHEIFENNVVHLMWQEPKEPNGLIVLYEVSYRRYGDEELHLCVSRKHFALERGCRLRGLSPGNYSVRVRATSLAGNGSWTEPTYFYVTDYLDVPSNIAKIIIGPLIFVFLFSVVIGSIYLFLRKRQPDGPMGPLYASSNPEYLSASDVFPSSVYVPDEWEVPREKITLLRELGQGSFGMVYEGNAKDIIKGEAETRVAVKTVNESASLRERIEFLNEASVMKGFTCHHVVRLLGVVSKGQPTLVVMELMAHGDLKSHLRSLRPDAENNPGRPPPTLQEMIQMTAEIADGMAYLNAKKFVHRDLAARNCMVAHDFTVKIGDFGMTRDIYETDYYRKGGKGLLPVRWMSPESLKDGVFTASSDMWSFGVVLWEITSLAEQPYQGLSNEQVLKFVMDGGYLDPPDNCPERLTDLMRMCWQFNPKMRPTFLEIVNLLKDDLHPSFPEVSFFYSEENKAPESEELEMEFEDMENVPLDRSSHCQREEAGGREGGSSLSIKRTYDEHIPYTHMNGGKKNGRVLTLPRSNPS
B2: full-length syntaxin 4 (natural protein)
chain: MRDRTHELRQGDNISDDEDEVRVALVVHSGAARLSSPDDEFFQKVQTIRQTMAKLESKVRELEKQQVTILATPLPEESMKQGLQNLREEIKQLGREVRAQLKAIEPQKEEADENYNSVNTRMKKTQHGVLSQQFVELINKCNSMQSEYREKNVERIRRQLKITNAGMVSDEELEQMLDSGQSEVFVSNILKDTQVTRQALNEISARHSEIQQLERSIRELHEIFTFLATEVEMQGEMINRIEKNILSSADYVERGQEHVKIALENQKKARKKKVMIAICVSVTVLILAVIIGITITVG

Tests used:
Experiment in all cases: co-IP
Munc18c = molecular target: T1, Munc18c
Flag-Munc18c-Y521F = molecular target: T2, Flag-Munc18c-Y521F
Flag-Munc18c-Y219F = molecular target: T3, Flag-Munc18c-Y219F

| Binder | fold change of coprecipitated IR, insulin versus unstimulated (Munc18c) [fold] | ratio syntaxin 4/Flag-Munc18c, insulin-stimulated versus basal = 1 (Flag-Munc18c-Y521F) | ratio syntaxin 4/Flag-Munc18c, insulin-stimulated versus basal = 1 (Flag-Munc18c-Y219F) |
| --- | --- | --- | --- |
| B1 | ~2 | – | – |
| B2 | – | 1.6 | 1 |
